Reference: publication PMC4773810, “Novel small molecules targeting ciliary transport of Smoothened and oncogenic Hedgehog pathway activation” (Scientific Reports, 2016)

T1: human GPRASP2 (G protein-coupled receptor associated sorting protein 2), full length (human, UniProt Q96D09 1-838)
T1 construct: G protein-coupled receptor associated sorting protein 2 (GPRASP2), human, full length; also called hGPRASP2; full-length hGPRASP2; source: E. coli Rosetta2 (DE3), purified (IMAC, TEV protease, second IMAC, size exclusion chromatography)
T1 sequence (looked up): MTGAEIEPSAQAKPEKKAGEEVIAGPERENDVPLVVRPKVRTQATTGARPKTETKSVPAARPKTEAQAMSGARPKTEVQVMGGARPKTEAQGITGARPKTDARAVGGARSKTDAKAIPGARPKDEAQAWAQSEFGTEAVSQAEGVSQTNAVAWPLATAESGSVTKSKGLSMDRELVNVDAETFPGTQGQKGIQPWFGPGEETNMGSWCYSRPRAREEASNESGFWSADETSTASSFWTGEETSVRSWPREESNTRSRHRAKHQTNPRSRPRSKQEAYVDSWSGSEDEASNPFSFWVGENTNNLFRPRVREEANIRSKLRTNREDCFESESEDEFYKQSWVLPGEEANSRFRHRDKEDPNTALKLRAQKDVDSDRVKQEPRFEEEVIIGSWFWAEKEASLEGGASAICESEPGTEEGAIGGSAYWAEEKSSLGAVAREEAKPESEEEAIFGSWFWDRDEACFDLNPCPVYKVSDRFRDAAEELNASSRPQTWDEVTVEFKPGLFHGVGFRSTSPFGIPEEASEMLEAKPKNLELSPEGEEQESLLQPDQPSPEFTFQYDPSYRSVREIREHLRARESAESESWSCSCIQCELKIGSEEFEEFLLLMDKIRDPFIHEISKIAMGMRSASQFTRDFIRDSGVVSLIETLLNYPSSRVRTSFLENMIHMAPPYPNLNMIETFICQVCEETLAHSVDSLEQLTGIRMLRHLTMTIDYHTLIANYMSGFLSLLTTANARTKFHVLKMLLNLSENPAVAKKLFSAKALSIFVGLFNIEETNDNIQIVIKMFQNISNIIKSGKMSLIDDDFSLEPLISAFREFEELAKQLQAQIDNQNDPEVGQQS


What follows are binders tested against T1, human GPRASP2 (G protein-coupled …) (assay: NMR titration; 1D 1H NMR (…) of 100 uM peptide before and after addition of hGPRASP2 to 0.78 uM; 600 MHz, 298 K; 50 mM sodium phosphate pH 8, 50 mM NaCl, 0.002% NaN3, 100 uM DTT, 90% H2O/10% D2O). Settings: both partners purified.

binding result	Binder
binds	STLVWTKATLLIWRRTWCRL (peptide, UniProt Q99835 533-552, looked up, also called hSMOM2 peptide; peptide from human SMOM2; source: synthetic peptide (PSL GmbH)) [hSMOM2 (aa533-552-W535L) peptide]
binds	STWVWTKATLLIWRRTWCRL (peptide, UniProt Q99835 533-552, looked up, source: synthetic peptide (PSL GmbH)) [hSMO-WT (aa533-552) peptide]
binds	KATLLIWRRTWCRL (peptide, UniProt Q99835 539-552, looked up, source: synthetic peptide (PSL GmbH)) [hSMO-WT (aa539-552) peptide]
